The target in this assay is Human cyclized NaPi2b peptide (human). The assay can be described thus: ELISA on plate-coated human cyclized NaPi2b peptide, one site-specific binding fit. A general note: In an ELISA, binding on a coated surface is turned into a signal by an enzyme label.

This note sets out measurements from US20190160181A1.

What is called Kd is the constant that tells how readily two partners part at equilibrium. Read a high Kd as lower affinity.

B1: XMT-1535 (antibody, V domains shown)
VH: QVQLVQSGAEVVKPGASVKMSCKASGYTFTGYNIHWVKQAPGQGLEWIGAIYPGNGDTSYKQKFRGRATLTADTSTSTVYMELSSLRSEDSAVYYCARGETARATFAYWGQGTLVTVSS
VL: DIQMTQSPSSLSASVGDRVTITCSASQDIGNFLNWYQQKPGKTVKVLIYYTSSLYSGVPSRFSGSGSGTDYTLTISSLQPEDFATYYCQQYSKLPLTFGQGTKLELKR
With B1, the Kd was 0.536 nM.
